Measurements taken from the supplement of paper PMC9112550, “Optimization of the antimicrobial peptide Bac7 by deep mutational scanning” (BMC Biology, 2022).

System: Escherichia coli TOP10
Assay: shrunken log2 fold change of peptide-encoding DNA abundance (4.5 h post-induction vs induction); higher = less antimicrobial activity (less host growth inhibition)
Details: time post-induction: 4.5 h; library: site-saturation at positions 5, 18, 19, 20
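Also: peptides expressed intracellularly from a pBAD plasmid library in pooled LB shake-flask culture, induced with 0.3% L-arabinose, DNA abundance read by NGS, three biological replicates, DESeq2 with apeglm shrinkage.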

Sequence	shrunken log2 fold change
RRIRPRPPRLPRPRPRPYPTPRP	-0.11
RRIRERPPRLPRPRPRPNQYPRP	-0.674
RRIRDRPPRLPRPRPRPENAPRP	0.37
RRIRQRPPRLPRPRPRPVADPRP	0.0976
RRIRTRPPRLPRPRPRPLHGPRP	0.184
RRIRYRPPRLPRPRPRPYYIPRP	-1.83
RRIRWRPPRLPRPRPRPYDMPRP	0.0118
RRIRCRPPRLPRPRPRPWEEPRP	0.0492
RRIRARPPRLPRPRPRPMCSPRP	0.334
RRIRWRPPRLPRPRPRPDLKPRP	0.12
RRIRCRPPRLPRPRPRPTKIPRP	0.0473
RRIRQRPPRLPRPRPRPAHFPRP	0.464
RRIRFRPPRLPRPRPRPHPHPRP	-0.168
RRIRCRPPRLPRPRPRPRVEPRP	0.0473
RRIRPRPPRLPRPRPRPPDIPRP	-0.602
RRIRIRPPRLPRPRPRPGDYPRP	-0.0189
RRIRFRPPRLPRPRPRPQQSPRP	-0.0219
RRIRDRPPRLPRPRPRPCLDPRP	-0.0178
RRIRYRPPRLPRPRPRPYKIPRP	-0.573
RRIRLRPPRLPRPRPRPPCMPRP	-0.0839
RRIRGRPPRLPRPRPRPMIFPRP	0.283
RRIRGRPPRLPRPRPRPQHPPRP	0.426
RRIRYRPPRLPRPRPRPGHQPRP	0.0299
RRIRRRPPRLPRPRPRPFEQPRP	0.105
RRIRPRPPRLPRPRPRPTTRPRP	1.65

Sequence	shrunken log2 fold change
RRIRCRPPRLPRPRPRPLGEPRP	0.277
RRIRTRPPRLPRPRPRPTYTPRP	-0.496
RRIRERPPRLPRPRPRPYQFPRP	-0.159
RRIRDRPPRLPRPRPRPMFGPRP	0.12
RRIRARPPRLPRPRPRPAFGPRP	0.6
RRIRARPPRLPRPRPRPNSGPRP	-0.0211
RRIRSRPPRLPRPRPRPNTRPRP	-0.186
RRIRARPPRLPRPRPRPQAAPRP	1.14
RRIRLRPPRLPRPRPRPQEEPRP	-0.0207
RRIRQRPPRLPRPRPRPACWPRP	0.401
RRIRERPPRLPRPRPRPARSPRP	0.0919
RRIRHRPPRLPRPRPRPSGDPRP	-0.107
RRIRPRPPRLPRPRPRPEARPRP	0.374
RRIRNRPPRLPRPRPRPCWSPRP	0.0596
RRIRDRPPRLPRPRPRPKYPPRP	0.0118
RRIRIRPPRLPRPRPRPCQFPRP	-0.395
RRIRQRPPRLPRPRPRPFMLPRP	-0.278
RRIRRRPPRLPRPRPRPRICPRP	0.414
RRIRCRPPRLPRPRPRPDVHPRP	-0.241
RRIRARPPRLPRPRPRPNDHPRP	-0.0473
RRIRHRPPRLPRPRPRPGIGPRP	-0.0787
RRIRERPPRLPRPRPRPTWHPRP	0.358
RRIRGRPPRLPRPRPRPFNRPRP	-0.0104
RRIRIRPPRLPRPRPRPLWMPRP	-0.303
RRIRQRPPRLPRPRPRPETYPRP	-0.213

Sequence	shrunken log2 fold change
RRIRVRPPRLPRPRPRPCCYPRP	-0.272
RRIRIRPPRLPRPRPRPEMYPRP	-0.174
RRIRSRPPRLPRPRPRPWITPRP	-0.305
RRIRGRPPRLPRPRPRPIKAPRP	0.024
RRIRNRPPRLPRPRPRPVIDPRP	-0.123
RRIRTRPPRLPRPRPRPPSTPRP	0.186
RRIRVRPPRLPRPRPRPCLDPRP	-0.135
RRIRHRPPRLPRPRPRPCKGPRP	-0.0269
RRIRVRPPRLPRPRPRPWSRPRP	-0.273
RRIRERPPRLPRPRPRPERFPRP	-0.0509
RRIRLRPPRLPRPRPRPFVFPRP	-0.337
RRIRDRPPRLPRPRPRPAYDPRP	0.0094
RRIRMRPPRLPRPRPRPMGVPRP	0.06
RRIRRRPPRLPRPRPRPFNTPRP	-0.119
RRIRQRPPRLPRPRPRPMAFPRP	-0.0854
RRIRWRPPRLPRPRPRPFLIPRP	-0.488
RRIRRRPPRLPRPRPRPCQDPRP	-0.275
RRIRKRPPRLPRPRPRPIITPRP	0.0225
RRIRHRPPRLPRPRPRPDSGPRP	-0.0385
RRIRIRPPRLPRPRPRPIGIPRP	-0.0608
RRIRYRPPRLPRPRPRPCTTPRP	-0.256
RRIRNRPPRLPRPRPRPVMHPRP	0.077
RRIRSRPPRLPRPRPRPVIPPRP	-0.156
RRIRCRPPRLPRPRPRPHILPRP	-0.476
RRIRNRPPRLPRPRPRPNLHPRP	-0.728

Sequence	shrunken log2 fold change
RRIRVRPPRLPRPRPRPEYKPRP	-0.501
RRIRMRPPRLPRPRPRPSMVPRP	0.0557
RRIRPRPPRLPRPRPRPISQPRP	-0.0721
RRIRNRPPRLPRPRPRPFYAPRP	-0.281
RRIRGRPPRLPRPRPRPEKEPRP	0.0374
RRIRRRPPRLPRPRPRPPTTPRP	0.445
RRIRDRPPRLPRPRPRPLQTPRP	0.135
RRIRYRPPRLPRPRPRPGKYPRP	-0.466
RRIRRRPPRLPRPRPRPQLYPRP	0.101
RRIRHRPPRLPRPRPRPWIEPRP	0.0254
RRIRCRPPRLPRPRPRPNMGPRP	-0.14
RRIRIRPPRLPRPRPRPNKGPRP	-0.137
RRIRRRPPRLPRPRPRPMFFPRP	-0.0274
RRIRYRPPRLPRPRPRPDQQPRP	-0.0144
RRIRYRPPRLPRPRPRPYVFPRP	-0.0427
RRIRNRPPRLPRPRPRPMRDPRP	-0.00169
RRIRRRPPRLPRPRPRPMANPRP	0.136
RRIRRRPPRLPRPRPRPYKQPRP	-0.286
RRIRRRPPRLPRPRPRPTKKPRP	0.253
RRIRYRPPRLPRPRPRPTTWPRP	-0.358
RRIRWRPPRLPRPRPRPYSGPRP	-0.105
RRIRIRPPRLPRPRPRPANDPRP	-0.135
RRIRKRPPRLPRPRPRPSPHPRP	-0.0333
RRIRLRPPRLPRPRPRPSDEPRP	-0.255
RRIRQRPPRLPRPRPRPDVCPRP	0.13

Sequence	shrunken log2 fold change
RRIRSRPPRLPRPRPRPMKFPRP	-0.0589
RRIRNRPPRLPRPRPRPNRTPRP	-0.0201
RRIRQRPPRLPRPRPRPDDTPRP	0.00151
RRIRFRPPRLPRPRPRPEWFPRP	0.0431
RRIRVRPPRLPRPRPRPGKYPRP	-0.493
RRIRIRPPRLPRPRPRPMHPPRP	0.00185
RRIRRRPPRLPRPRPRPIQNPRP	0.0525
RRIRFRPPRLPRPRPRPHLYPRP	-0.355
RRIRRRPPRLPRPRPRPCFSPRP	-0.14
RRIRRRPPRLPRPRPRPTEIPRP	0.299
RRIRGRPPRLPRPRPRPCPHPRP	0.205
RRIRCRPPRLPRPRPRPCGKPRP	-0.0972
RRIRSRPPRLPRPRPRPQLWPRP	0.0725
RRIRKRPPRLPRPRPRPTAIPRP	0.444
RRIRPRPPRLPRPRPRPHSMPRP	-0.408
RRIRMRPPRLPRPRPRPTNIPRP	-0.0556
RRIRQRPPRLPRPRPRPPMMPRP	0.154
RRIRKRPPRLPRPRPRPDSGPRP	-0.00213
RRIRLRPPRLPRPRPRPYFYPRP	-0.942
RRIRPRPPRLPRPRPRPECWPRP	0.903
RRIRRRPPRLPRPRPRPWYHPRP	-0.0689
RRIRGRPPRLPRPRPRPVPKPRP	0.92
RRIRNRPPRLPRPRPRPSSEPRP	-0.214
RRIRRRPPRLPRPRPRPEHAPRP	0.686
RRIRLRPPRLPRPRPRPDLDPRP	-0.0167

Sequence	shrunken log2 fold change
RRIRARPPRLPRPRPRPEHPPRP	0.652
RRIRWRPPRLPRPRPRPAGHPRP	-0.0472
RRIRQRPPRLPRPRPRPQVEPRP	-0.0173
RRIRHRPPRLPRPRPRPIAQPRP	-0.0267
RRIRCRPPRLPRPRPRPCVHPRP	-0.0561
RRIRTRPPRLPRPRPRPEFAPRP	0.0178
RRIRCRPPRLPRPRPRPEKCPRP	0.209
RRIRGRPPRLPRPRPRPFFQPRP	0.103
RRIRQRPPRLPRPRPRPWGMPRP	-0.0405
RRIRVRPPRLPRPRPRPTNFPRP	-0.287
RRIRCRPPRLPRPRPRPKGAPRP	0.492
RRIRSRPPRLPRPRPRPTTGPRP	0.0655
RRIRCRPPRLPRPRPRPESDPRP	0.242
RRIRSRPPRLPRPRPRPVYNPRP	-0.974
RRIRWRPPRLPRPRPRPSQQPRP	-0.002
RRIRRRPPRLPRPRPRPFVIPRP	-0.0863
RRIRTRPPRLPRPRPRPARLPRP	0.215
RRIRQRPPRLPRPRPRPLKWPRP	0.0646
RRIRCRPPRLPRPRPRPHPLPRP	0.989
RRIRARPPRLPRPRPRPQKVPRP	0.0196
RRIRQRPPRLPRPRPRPGPPPRP	0.462
RRIRSRPPRLPRPRPRPCYNPRP	-0.513
RRIRDRPPRLPRPRPRPCVEPRP	0.111
RRIRRRPPRLPRPRPRPLTCPRP	-0.12
RRIRSRPPRLPRPRPRPSPSPRP	0.0408
